1 sequence from patent US6518063 can be followed below.

For this data set, the target named is OSF2/CBFA1b (lacks 22 aa of exon 8) deletion of 22 aa encoded by exon 8 (Homo sapiens) (UniProt Q13950). As to the kind of experiment: cell_activity. The following applies: p6OSE2-luc, F9 cells.
Sequence of OSF2/CBFA1b (lacks 22 aa of exon 8) deletion of 22 aa encoded by exon 8 (Homo sapiens) (Q13950 whole entry, stated change not applied): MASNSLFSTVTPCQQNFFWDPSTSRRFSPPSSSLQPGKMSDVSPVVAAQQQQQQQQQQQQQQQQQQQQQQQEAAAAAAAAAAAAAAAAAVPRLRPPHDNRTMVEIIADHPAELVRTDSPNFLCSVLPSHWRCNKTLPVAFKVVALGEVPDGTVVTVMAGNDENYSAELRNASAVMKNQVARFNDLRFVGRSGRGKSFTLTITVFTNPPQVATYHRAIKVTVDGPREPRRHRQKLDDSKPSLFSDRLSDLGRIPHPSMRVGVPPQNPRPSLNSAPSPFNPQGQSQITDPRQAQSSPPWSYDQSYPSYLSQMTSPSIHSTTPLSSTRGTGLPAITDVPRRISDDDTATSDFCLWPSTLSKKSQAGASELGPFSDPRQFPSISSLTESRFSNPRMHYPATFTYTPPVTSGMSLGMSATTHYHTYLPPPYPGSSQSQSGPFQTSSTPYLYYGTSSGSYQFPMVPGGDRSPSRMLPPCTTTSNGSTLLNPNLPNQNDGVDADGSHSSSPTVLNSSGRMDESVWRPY

Sequence “AGCTGCAATCACCAACCACAGCA (double strand) [Osteocalcin (OG2) OSE2]” came in with an activity (fold activation) of 40.
